The record followed here is article PMC5816668, “Insights into the inhibitory mechanisms of NADH on the αγ heterodimer of human NAD-dependent isocitrate dehydrogenase” (Scientific Reports, 2018).

Substrate in the series: NC(=O)c1ccc[n+]([C@@H]2O[C@H](COP(=O)(O)OP(=O)(O)OC[C@H]3O[C@@H](n4cnc5c(N)ncnc54)[C@H](O)[C@@H]3O)[C@@H](O)[C@H]2O)c1
Put plainly: purified protein. To be noted: 33 mM Tris-acetate pH 7.4, 2 mM Mn2+, 20 mM DL-isocitrate, 25 °C, no NADH, Michaelis-Menten fit, varied: cofactor. In kind it is biochemical, Homo sapiens.

B1: αγ heterodimer of human NAD-IDH (Homo sapiens) (protein)
chain 1: TGGVQTVTLIPGDGIGPEISAAVMKIFDAAKAPIQWEERNVTAIQGPGGKWMIPSEAKESMDKNKMGLKGPLKTPIAAGHPSMNLLLRKTFDLYANVRPCVSIEGYKTPYTDVNIVTIRENTEGEYSGIEHVIVDGVVQSIKLITEGASKRIAEFAFEYARNNHRSNVTAVHKANIMRMSDGLFLQKCREVAESCKDIKFNEMYLDTVCLNMVQDPSQFDVLVMPNLYGDILSDLCAGLIGGLGVTPSGNIGANGVAIFESVHGTAPDIAGKDMANPTALLLSAVMMLRHMGLFDHAARIEAACFATIKDGKSLTKDLGGNAKCSDFTEEICRRVKDLD
chain 2: FSEQTIPPSAKYGGRHTVTMIPGDGIGPELMLHVKSVFRHACVPVDFEEVHVSSNADEEDIRNAIMAIRRNRVALKGNIETNHNLPPSHKSRNNILRTSLDLYANVIHCKSLPGVVTRHKDIDILIVRENTEGEYSSLEHESVAGVVESLKIITKAKSLRIAEYAFKLAQESGRKKVTAVHKANIMKLGDGLFLQCCREVAARYPQITFENMIVDNTTMQLVSRPQQFDVMVMPNLYGNIVNNVCAGLVGGPGLVAGANYGHVYAVFETATRNTGKSIANKNIANPTATLLASCMMLDHLKLHSYATSIRKAVLASMDNENMHTPDIGGQGTTSEAIQDVIRHIRVINGRAVEA
notes: E. coli BL21(DE3) Codon-Plus co-expression from pQlinkN-α-γ-tev-His6; C-terminal His6 of gamma cut with TEV protease; alpha 37 kDa, gamma 39 kDa; heterodimer
With B1, the K0.5 is reported as 0.267 ± 0.002 mM.
